Data: patent US20100150834A1 (BURNHAM INSTITUTE, published 2010)

T1: EphB4 (receptor of Table 1) (Mus musculus (Mouse), UniProt P54761 16-539)
T1 sequence: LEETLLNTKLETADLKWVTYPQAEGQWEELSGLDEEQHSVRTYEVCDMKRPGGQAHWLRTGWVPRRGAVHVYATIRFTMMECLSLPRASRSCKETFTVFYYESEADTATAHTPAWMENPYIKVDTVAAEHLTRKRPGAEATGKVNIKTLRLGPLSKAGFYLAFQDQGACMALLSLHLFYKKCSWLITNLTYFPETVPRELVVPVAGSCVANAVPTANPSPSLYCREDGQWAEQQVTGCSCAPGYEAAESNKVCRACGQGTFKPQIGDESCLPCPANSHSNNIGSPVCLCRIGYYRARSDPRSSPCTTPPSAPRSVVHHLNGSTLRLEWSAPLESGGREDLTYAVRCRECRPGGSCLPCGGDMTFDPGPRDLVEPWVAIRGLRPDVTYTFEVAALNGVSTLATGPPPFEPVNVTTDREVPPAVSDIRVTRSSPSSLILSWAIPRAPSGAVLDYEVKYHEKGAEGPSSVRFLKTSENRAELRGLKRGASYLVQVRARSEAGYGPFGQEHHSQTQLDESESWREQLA

T2: murine EphB4 ectodomain (murine, UniProt P54761 16-539)
T2 construct: extracellular domain; Coated on wells; also called immobilized EphB4 receptor ectodomain
T2 sequence (looked up): T1 sequence

T3: murine EphB4-Alkaline Phosphatase (murine, UniProt P54761 16-539)
T3 construct: also called EphB4-AP; EphB4 AP; not shown: alkaline phosphatase
T3 sequence (looked up): T1 sequence

B1: ephrin-B2 Fc (Example 7) (Fc fusion, not shown: a dimerising Fc or GST; small tags and cut ends)
chain: RSIVLEPIYWNSSNSKFLPGQGLVLYPQIGDKLDIICPKVDSKTVGQYEYYKVYMVDKDQADRCTIKKENTPLLNCARPDQDVKFTIKFQEFSPNLWGLEFQKNKDYYIISTSNGSLEGLDNQEGGVCQTRAMKILMKVGQDASSAGSARNHGPTRRPELEAGTNGRSSTTSPFVKPNPGSSTDGNSAGHSGNNLLGSEVALFA
notes: also called ephrin B2 Fc protein; ephrin B2 Fc fusion protein

Target: EphB1 (receptor of Table 1)
Assay: EphB receptor specificity panel (% binding)

| Binder | % Binding [%] |
| --- | --- |
| IHWPVAPYSYLD (Panned on EphB2) [IHWPVAPYSYLD peptide (SEQ ID NO:11)] | 97 |
| THWCHLLNCAAL (Panned on EphB2) [THWCHLLNCAAL peptide (SEQ ID NO:6)] | 100 |
| NPVIGPIQRAWT (Panned on EphB4) [NPVIGPIQRAWT peptide (SEQ ID NO:27)] | 1 |
| WPPHWPRSLDYA (Panned on EphB2) [WPPHWPRSLDYA peptide (SEQ ID NO:17)] | 0 |
| DHWYYTPWQPIE (Panned on EphB2) [DHWYYTPWQPIE peptide (SEQ ID NO:9)] | 100 |
| SHWPISPYSLLS (Panned on EphB2) [SHWPISPYSLLS peptide (SEQ ID NO:14)] | 39 |
| GPVHRAWEPTSH (Panned on EphB4) [GPVHRAWEPTSH peptide (SEQ ID NO:29)] | 4 |
| DHWRILPFSLSS (Panned on EphB2) [DHWRILPFSLSS peptide (SEQ ID NO:10)] | 53 |
| WGIPRAAQVMWT (Panned on EphB4) [WGIPRAAQVMWT peptide (SEQ ID NO:33)] | 16 |
| DHWPLLPYALAH (Panned on EphB2) [… peptide (SEQ ID NO:16)] | 4 |
| GPVADAWLVYPR (Panned on EphB4) [GPVADAWLVYPR peptide (SEQ ID NO:32)] | 10 |

Target: EphB2 (receptor of Table 1)
Assay: EphB receptor specificity panel (% binding)

| Binder | % Binding [%] |
| --- | --- |
| IHWPVAPYSYLD (Panned on EphB2) [IHWPVAPYSYLD peptide (SEQ ID NO:11)] | 100 |
| THWCHLLNCAAL (Panned on EphB2) [THWCHLLNCAAL peptide (SEQ ID NO:6)] | 89 |
| NPVIGPIQRAWT (Panned on EphB4) [NPVIGPIQRAWT peptide (SEQ ID NO:27)] | 0 |
| WPPHWPRSLDYA (Panned on EphB2) [WPPHWPRSLDYA peptide (SEQ ID NO:17)] | 100 |
| DHWYYTPWQPIE (Panned on EphB2) [DHWYYTPWQPIE peptide (SEQ ID NO:9)] | 81 |
| SHWPISPYSLLS (Panned on EphB2) [SHWPISPYSLLS peptide (SEQ ID NO:14)] | 100 |
| GPVHRAWEPTSH (Panned on EphB4) [GPVHRAWEPTSH peptide (SEQ ID NO:29)] | 6 |
| DHWRILPFSLSS (Panned on EphB2) [DHWRILPFSLSS peptide (SEQ ID NO:10)] | 100 |
| WGIPRAAQVMWT (Panned on EphB4) [WGIPRAAQVMWT peptide (SEQ ID NO:33)] | 17 |
| DHWPLLPYALAH (Panned on EphB2) [… peptide (SEQ ID NO:16)] | 100 |
| GPVADAWLVYPR (Panned on EphB4) [GPVADAWLVYPR peptide (SEQ ID NO:32)] | 5 |

Target: EphB3 (receptor of Table 1)
Assay: EphB receptor specificity panel (% binding)

| Binder | % Binding [%] |
| --- | --- |
| IHWPVAPYSYLD (Panned on EphB2) [IHWPVAPYSYLD peptide (SEQ ID NO:11)] | 4 |
| THWCHLLNCAAL (Panned on EphB2) [THWCHLLNCAAL peptide (SEQ ID NO:6)] | 85 |
| NPVIGPIQRAWT (Panned on EphB4) [NPVIGPIQRAWT peptide (SEQ ID NO:27)] | 4 |
| WPPHWPRSLDYA (Panned on EphB2) [WPPHWPRSLDYA peptide (SEQ ID NO:17)] | 0 |
| DHWYYTPWQPIE (Panned on EphB2) [DHWYYTPWQPIE peptide (SEQ ID NO:9)] | 5 |
| SHWPISPYSLLS (Panned on EphB2) [SHWPISPYSLLS peptide (SEQ ID NO:14)] | 9 |
| GPVHRAWEPTSH (Panned on EphB4) [GPVHRAWEPTSH peptide (SEQ ID NO:29)] | 16 |
| DHWRILPFSLSS (Panned on EphB2) [DHWRILPFSLSS peptide (SEQ ID NO:10)] | 4 |
| WGIPRAAQVMWT (Panned on EphB4) [WGIPRAAQVMWT peptide (SEQ ID NO:33)] | 20 |
| DHWPLLPYALAH (Panned on EphB2) [… peptide (SEQ ID NO:16)] | 7 |
| GPVADAWLVYPR (Panned on EphB4) [GPVADAWLVYPR peptide (SEQ ID NO:32)] | 4 |

Target: T1, EphB4 (receptor of Table 1)
Assay: EphB receptor specificity panel (% binding)

| Binder | % Binding [%] |
| --- | --- |
| IPWTQHMAMSPM (Panned on EphB4) [… peptide (SEQ ID NO:34)] | 100 |
| IHWPVAPYSYLD (Panned on EphB2) [IHWPVAPYSYLD peptide (SEQ ID NO:11)] | 4 |
| THWCHLLNCAAL (Panned on EphB2) [THWCHLLNCAAL peptide (SEQ ID NO:6)] | 20 |
| NPVIGPIQRAWT (Panned on EphB4) [NPVIGPIQRAWT peptide (SEQ ID NO:27)] | 100 |
| WPPHWPRSLDYA (Panned on EphB2) [WPPHWPRSLDYA peptide (SEQ ID NO:17)] | 0 |
| DHWYYTPWQPIE (Panned on EphB2) [DHWYYTPWQPIE peptide (SEQ ID NO:9)] | 5 |
| SHWPISPYSLLS (Panned on EphB2) [SHWPISPYSLLS peptide (SEQ ID NO:14)] | 4 |
| GPVHRAWEPTSH (Panned on EphB4) [GPVHRAWEPTSH peptide (SEQ ID NO:29)] | 100 |
| SGHQLLLNKMPN (Panned on EphB4) [SGHQLLLNKMPN peptide (SEQ ID NO:35)] | 100 |
| DHWRILPFSLSS (Panned on EphB2) [DHWRILPFSLSS peptide (SEQ ID NO:10)] | 1 |
| WGIPRAAQVMWT (Panned on EphB4) [WGIPRAAQVMWT peptide (SEQ ID NO:33)] | 100 |
| DHWPLLPYALAH (Panned on EphB2) [… peptide (SEQ ID NO:16)] | 0 |
| GPVADAWLVYPR (Panned on EphB4) [GPVADAWLVYPR peptide (SEQ ID NO:32)] | 100 |

Target: EphB6 (receptor of Table 1)
Assay: EphB receptor specificity panel (% binding)

| Binder | % Binding [%] |
| --- | --- |
| IHWPVAPYSYLD (Panned on EphB2) [IHWPVAPYSYLD peptide (SEQ ID NO:11)] | 7 |
| THWCHLLNCAAL (Panned on EphB2) [THWCHLLNCAAL peptide (SEQ ID NO:6)] | 26 |
| NPVIGPIQRAWT (Panned on EphB4) [NPVIGPIQRAWT peptide (SEQ ID NO:27)] | 0 |
| WPPHWPRSLDYA (Panned on EphB2) [WPPHWPRSLDYA peptide (SEQ ID NO:17)] | 0 |
| DHWYYTPWQPIE (Panned on EphB2) [DHWYYTPWQPIE peptide (SEQ ID NO:9)] | 2 |
| SHWPISPYSLLS (Panned on EphB2) [SHWPISPYSLLS peptide (SEQ ID NO:14)] | 8 |
| GPVHRAWEPTSH (Panned on EphB4) [GPVHRAWEPTSH peptide (SEQ ID NO:29)] | 7 |
| DHWRILPFSLSS (Panned on EphB2) [DHWRILPFSLSS peptide (SEQ ID NO:10)] | 3 |
| WGIPRAAQVMWT (Panned on EphB4) [WGIPRAAQVMWT peptide (SEQ ID NO:33)] | 14 |
| DHWPLLPYALAH (Panned on EphB2) [… peptide (SEQ ID NO:16)] | 0 |
| GPVADAWLVYPR (Panned on EphB4) [GPVADAWLVYPR peptide (SEQ ID NO:32)] | 6 |

Target: EphB2 (receptor of Table 1)
Assay: inhibition of ephrin-B2 AP binding to EphB2 (panning receptor)

| Binder | IC50 [nM] |
| --- | --- |
| SHWPISPYSLLS (Panned on EphB2) [SHWPISPYSLLS peptide (SEQ ID NO:14)] | > 100000 |
| DHWRILPFSLSS (Panned on EphB2) [DHWRILPFSLSS peptide (SEQ ID NO:10)] | > 100000 |

Target: T1, EphB4 (receptor of Table 1)
Assay: inhibition of ephrin-B2 AP binding to EphB4 (panning receptor)

| Binder | IC50 [nM] |
| --- | --- |
| NPVIGPIQRAWT (Panned on EphB4) [NPVIGPIQRAWT peptide (SEQ ID NO:27)] | > 500000 |

Target: T2, murine EphB4 ectodomain
Assay: inhibition of murine ephrin-B2 AP binding to immobilised murine EphB4 ectodomain

| Binder | IC50 [nM] |
| --- | --- |
| YLFSPNGPIARAW [YL-RAW peptide YLFSPNGPIARAW (SEQ ID NO:41)] | ~40 |
| NYLFSPNGPIARAW [NYL-RAW peptide NYLFSPNGPIARAW (SEQ ID NO:40)] | ~40 |
| LFSPNGPIARAW [L-RAW peptide LFSPNGPIARAW (SEQ ID NO:42)] | > 10000 |

Target: T3, murine EphB4-Alkaline Phosphatase
Assay: ELISA binding curve: ephrin-B2 Fc immobilised, increasing volumes of murine EphB4 AP, OD405; one experiment

| Binder | Kd [nM] |
| --- | --- |
| B1 | 0.6 |
